Positions count from the first letter of the chain named. In names and notes the source's numbering stands.

Substrate in this series: COc1cc(C=NN=Cc2cc(OC)c(O)c(OC)c2)cc(OC)c1O
The series is described as follows: purified protein. Conditions: 50 mM acetate pH 5.2, 0.33 mM copper, room temperature. Format: biochemical, Escherichia coli.

[1] abbreviates: CueO-12.1, graft PRFMDYWEGLN (from primers; residues 384–394 replaced).
Setting [2] is: CueO-PM2, graft TSFAEYWALLS (from primers), no MDM2.
Where [3] appears, read: CueO-12.1CON, graft PRAMDYAEGAN (from primers).
[4] abbreviates: CueO-HA, HA epitope graft TSYPYDVPDYA (from primers), no antibody.

B1: CueO (Escherichia coli K-12; G386R/G389D/G391W/H387F/H390Y/H395N/M358I/M385P/M393G/N392E/N394L) (protein)
chain: AERPTLPIPDLLTTDARNRIQLTIGAGQSTFGGKTATTWGYNGNLLGPAVKLQRGKAVTVDIYNQLTEETTLHWHGLEVPGEVDGGPQGIIPPGGKRSVTLNVDQPAATCWFHPHQHGKTGRQVAMGLAGLVVIEDDEILKLMLPKQWGIDDVPVIVQDKKFSADGQIDYQLDVMTAAVGWFGDTLLTNGAIYPQHAAPRGWLRLRLLNGCNARSLNFATSDNRPLYVIASDGGLLPEPVKVSELPVLMGERFEVLVEVNDNKPFDLVTLPVSQMGMAIAPFDKPHPVMRIQPIAISASGALPDTLSSLPALPSLEGLTVRKLQLSMDPILDMMGMQMLMEKYGDQAMAGMDHSQMPRFMDYWEGLNMNHGGKFDFHHANKINGQAFDMNKPMFAAAKGQYERWVISGVGDMMLHPFHIHGTQFRILSENGKPPAAHRAGWKDTVKVEGNVSEVLVKFNHDAPKEHAYMAHCHLLEHEDTGMMLGFTV
notes: C-terminal His6 tag, pET22b, full-length gene cloned, expressed in E. coli BL21(DE3); crystal models start at residue 29/30; given PDB entries are of the CueO-12.1 and CueO-PM2 variants
For B1, under setting [1], the Km was determined as 290.65 ± 44.33 µM, the kcat was 1.03 ± 0.0613 s⁻¹ and the kcat/Km amounted to 3500 M⁻¹ s⁻¹.

B2: CueO (Escherichia coli K-12; G386S/G389E/G391W/H387F/H390Y/H395S/M358I/M385T/M388A/M393L/N392A/N394L) (protein)
chain: B1 chain with P357T, R358S, M360A, D361E, E364A, G365L, N367S
notes: as for B1
In the case of B2, under setting [2], the Km came to 284.77 ± 25.50 µM, the kcat turned out to be 0.811 ± 0.0288 s⁻¹ and the kcat/Km was determined as 2830 M⁻¹ s⁻¹.

B3: CueO (Escherichia coli K-12; M358I) (protein)
chain: B1 chain with P357M, R358G, F359H, D361G, Y362H, W363G, E364N, G365M, L366N, N367H
notes: as for B1
Consider B3, for which the Km worked out at 256.09 ± 9.59 µM, the kcat is 2.24 ± 0.19 s⁻¹ and the kcat/Km is 8830 M⁻¹ s⁻¹.

B4: CueO (Escherichia coli K-12; G386R/G389D/G391A/H387A/H390Y/H395N/M358I/M385P/M393G/N392E/N394A) (protein)
chain: B1 chain with F359A, W363A, L366A
notes: as for B1
Take B4: under setting [3], the Km came out at 234.51 ± 41.99 µM, the kcat is 1.61 ± 0.238 s⁻¹ and the kcat/Km is 6830 M⁻¹ s⁻¹.

B5: CueO (Escherichia coli K-12; G386S/G389Y/G391V/H387Y/H390D/H395A/M358I/M385T/M388P/M393D/N392P/N394Y) (protein)
chain: AERPTLPIPDLLTTDARNRIQLTIGAGQSTFGGKTATTWGYNGNLLGPAVKLQRGKAVTVDIYNQLTEETTLHWHGLEVPGEVDGGPQGIIPPGGKRSVTLNVDQPAATCWFHPHQHGKTGRQVAMGLAGLVVIEDDEILKLMLPKQWGIDDVPVIVQDKKFSADGQIDYQLDVMTAAVGWFGDTLLTNGAIYPQHAAPRGWLRLRLLNGCNARSLNFATSDNRPLYVIASDGGLLPEPVKVSELPVLMGERFEVLVEVNDNKPFDLVTLPVSQMGMAIAPFDKPHPVMRIQPIAISASGALPDTLSSLPALPSLEGLTVRKLQLSMDPILDMMGMQMLMEKYGDQAMAGMDHSQMTSYPYDVPDYAMNHGGKFDFHHANKINGQAFDMNKPMFAAAKGQYERWVISGVGDMMLHPFHIHGTQFRILSENGKPPAAHRAGWKDTVKVEGNVSEVLVKFNHDAPKEHAYMAHCHLLEHEDTGMMLGFTV
notes: as for B1
Consider B5, for which, under setting [4], the Km was determined as 286.06 ± 22.89 µM, the kcat worked out at 1.49 ± 0.151 s⁻¹ and the kcat/Km is 5170 M⁻¹ s⁻¹.

B6: CueO (Escherichia coli K-12) (protein)
chain: AERPTLPIPDLLTTDARNRIQLTIGAGQSTFGGKTATTWGYNGNLLGPAVKLQRGKAVTVDIYNQLTEETTLHWHGLEVPGEVDGGPQGIIPPGGKRSVTLNVDQPAATCWFHPHQHGKTGRQVAMGLAGLVVIEDDEILKLMLPKQWGIDDVPVIVQDKKFSADGQIDYQLDVMTAAVGWFGDTLLTNGAIYPQHAAPRGWLRLRLLNGCNARSLNFATSDNRPLYVIASDGGLLPEPVKVSELPVLMGERFEVLVEVNDNKPFDLVTLPVSQMGMAIAPFDKPHPVMRIQPIAISASGALPDTLSSLPALPSLEGLTVRKLQLSMDPMLDMMGMQMLMEKYGDQAMAGMDHSQMMGHMGHGNMNHMNHGGKFDFHHANKINGQAFDMNKPMFAAAKGQYERWVISGVGDMMLHPFHIHGTQFRILSENGKPPAAHRAGWKDTVKVEGNVSEVLVKFNHDAPKEHAYMAHCHLLEHEDTGMMLGFTV
notes: as for B1
As for B6, under “CueO-WT (358 reverted to Met)”, the Km was found to be 293.18 ± 23.08 µM, the kcat is 2.52 ± 0.136 s⁻¹ and the kcat/Km is 8670 M⁻¹ s⁻¹.

Source of the values: article PMC6497955, “Development and structural characterization of an engineered multi-copper oxidase reporter of protein–protein interactions” (The Journal of Biological Chemistry, 2019).
